What all share (assay): cell-based or functional assay
Test [1] addresses Receptor for Advanced Glycation Endproducts (RAGE), human, full length (human) (UniProt Q15109).
The target is the same in test [2]. This is another data set of the same source.
Test [3] has the same target. This is another data set of the same source.

Read-outs that look alike come from different tables or passages of the source.

UniProt Q15109, sequence (Q15109 23-404 limits assumed): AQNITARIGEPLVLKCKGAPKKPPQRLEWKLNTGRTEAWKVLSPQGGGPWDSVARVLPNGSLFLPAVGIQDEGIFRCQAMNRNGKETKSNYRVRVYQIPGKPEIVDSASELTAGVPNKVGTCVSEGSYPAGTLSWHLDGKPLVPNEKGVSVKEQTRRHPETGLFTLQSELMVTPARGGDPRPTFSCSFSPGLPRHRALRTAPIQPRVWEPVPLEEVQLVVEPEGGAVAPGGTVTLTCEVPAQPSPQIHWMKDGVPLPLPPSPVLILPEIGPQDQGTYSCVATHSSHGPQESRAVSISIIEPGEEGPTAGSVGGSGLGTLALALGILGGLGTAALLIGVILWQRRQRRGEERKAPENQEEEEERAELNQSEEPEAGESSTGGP

In test [1], “SNIPER-MMAE (MAB11451 conjugated with vcMMAE) (antibody)” gave an IC50, cell viability, HEC1A endometrial cancer cells, 24 h of 10.3 µg/mL; an IC50, cell viability, HEC1A endometrial cancer cells, 48 h of 4.69 µg/mL; an IC50, cell viability, HEC1A endometrial cancer cells, 96 h of 1.02 µg/mL; an IC50, cell viability, HEC1B endometrial cancer cells, 24 h of 29 µg/mL. Moreover, in test [1], the IC50, cell viability, HEC1B endometrial cancer cells, 48 h was 8.65 µg/mL; the IC50, cell viability, HEC1B endometrial cancer cells, 96 h was 5.67 µg/mL; the IC50, cell viability, HEC50 endometrial cancer cells, 48 h turned out to be 7.64 µg/mL; the IC50, cell viability, HEC50 endometrial cancer cells, 96 h turned out to be 2.18 µg/mL. Moreover, in test [1], the IC50, cell viability, Ishikawa endometrial cancer cells, 24 h worked out at 31 µg/mL; the IC50, cell viability, Ishikawa endometrial cancer cells, 48 h was 9.54 µg/mL; the IC50, cell viability, Ishikawa endometrial cancer cells, 96 h turned out to be 3.86 µg/mL; the IC50, cell viability, TOV112D ovarian cancer cells, 24 h turned out to be 22.6 µg/mL. In test [1], the IC50, cell viability, TOV112D ovarian cancer cells, 48 h amounted to 16.2 µg/mL; the IC50, cell viability, TOV112D ovarian cancer cells, 96 h came out at 0.54 µg/mL; the IC50, cell viability, healthy endometrial cells, 48 h stood at 10.7 µg/mL; the IC50, cell viability, healthy endometrial cells, 96 h amounted to 15.2 µg/mL. The substance further showed an IC50, cell viability, healthy ovarian cells, 96 h in test [1] of 41 µg/mL. The IC50, cell viability, TOV112D ovarian cancer cells, 24 h in test [2] was found to be 16.7 µg/mL.

In test [1], “SNIPER-MMAF (MAB11451 conjugated with mcMMAF) (antibody)” yielded an IC50, cell viability, HEC1A endometrial cancer cells, 24 h of 24.1 µg/mL; an IC50, cell viability, HEC1A endometrial cancer cells, 48 h of 0.81 µg/mL; an IC50, cell viability, HEC1A endometrial cancer cells, 96 h of 0.74 µg/mL; an IC50, cell viability, HEC1B endometrial cancer cells, 48 h of 1.96 µg/mL. Moreover, in test [1], the IC50, cell viability, HEC1B endometrial cancer cells, 96 h came out at 1.27 µg/mL; the IC50, cell viability, HEC50 endometrial cancer cells, 24 h was 17.8 µg/mL; the IC50, cell viability, HEC50 endometrial cancer cells, 48 h was 0.86 µg/mL; the IC50, cell viability, HEC50 endometrial cancer cells, 96 h was 0.94 µg/mL. In test [1], the IC50, cell viability, Ishikawa endometrial cancer cells, 24 h is 16.7 µg/mL; the IC50, cell viability, Ishikawa endometrial cancer cells, 48 h is 6.48 µg/mL; the IC50, cell viability, Ishikawa endometrial cancer cells, 96 h came to 2.42 µg/mL; the IC50, cell viability, TOV112D ovarian cancer cells, 48 h worked out at 2.51 µg/mL. In addition, in test [1], the IC50, cell viability, TOV112D ovarian cancer cells, 96 h was 0.59 µg/mL; the IC50, cell viability, healthy endometrial cells, 48 h came to 7.25 µg/mL; the IC50, cell viability, healthy endometrial cells, 96 h turned out to be 4.17 µg/mL; the IC50, cell viability, healthy ovarian cells, 48 h came to 14.4 µg/mL. Also, the IC50, cell viability, healthy ovarian cells, 96 h in test [1] was 4.87 µg/mL. Also, in test [3], the IC50, cell viability, Ishikawa endometrial cancer cells, 24 h was determined as 16.7 µg/mL. The IC50, cell viability, TOV112D ovarian cancer cells, 24 h in test [2] came to 2.5 µg/mL.

For the origin of these results see patent US20200055934A1.
